The text below walks through data of publication PMC2719906 (Nature, 2008).

The chains are these.
B1: EspFU R18 peptide (peptide)
peptide: LPDVAQRLMQHLAEHGIQ
B2: N-WASPC (N-WASP residues 193-501) (domain or fragment)
chain: KRLTKADIGTPSNFQHIGHVGWDPNTGFDLNNLDPELKNLFDMCGISEAQLKDRETSKVIYDFIEKTGGVEAVKNELRRQAPPPPPPSRGGPPPPPPPPHSSGPPPPPARGRGAPPPPPSRAPTAAPPPPPPSRPGVVVPPPPPNRMYPPPPPALPSSAPSGPPPPPPLSMAGSTAPPPPPPPPPPPGPPPPPGLPSDGDHQVPASSGNKAALLDQIREGAQLKKVEQNSRPVSCSGRDALLDQIRQGIQLKSVSDGQESTPPTPAPTSGIVGALMEVMQKRSKAIHSSDEDEDDDDEEDFQDDDEWED
B3: EspFU R33 (N-terminal 33-residue fragment of the fifth repeat) (domain or fragment)
chain: LPDVAQRLMQHLAEHGIQPARNMAEHIPPAPNW

Assay [1] addresses B2. The experiment in a line: ITC.
Assay [2] has as its target EspFU R47 (full 47-residue fifth repeat of EspFU) (enterohaemorrhagic E. coli (EHEC, …, UniProt P0DJ88 268-314)). The experiment in a line: ITC.
Assay [3] concerns the target T1, WASP GBD (GTPase binding domain, residues 242-310) (UniProt P42768 242-310).
T1 sequence (looked up): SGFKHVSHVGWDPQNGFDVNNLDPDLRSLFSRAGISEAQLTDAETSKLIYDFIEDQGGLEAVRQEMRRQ
The experiment in a line: NMR titration.

Molecule B1 displayed a Kd in assay [1] of 4 µM.
In assay [2], B2 displayed a Kd of 0.035 µM.
Molecule B3 came in with a Kd in assay [1] of 0.035 µM. In addition, the “stoichiometry N” value in assay [3] is 1 EspFU:GBD.
